Source: patent US20180186871A1 (SINGAPORE HEALTH SERVICES PTE, published 2018)
Residue numbers refer to the chain shown, from its start.

B1: YU112-D08 (scFv)
scFv: QVQLVESGGGVVQPGRSLRLSCAASGFTFSSYGMHWVRQAPGKGLEWVAVISYDGSNKYYADSVEGRFTISRDNSKNTLYLQMNSLRAEDTAVYYCAKIGATDPLDYWGQGTLVTVSSGSASAPKLEEGEFSEARVQSALTQPRSVSGSPGQSVTISCTGTISDVGGYNYVSWYQQHPGKAPKLMIYDVTKRPSGVPDRFSGSKSGNTASLTISGLQAEDEAGYYCSSYAGSYTWVFGGGTELTVL
B2: YU112-G06 (scFv)
scFv: B1 scFv with V5Q, E65K, P193R, S232G
B3: YU100-F01 (scFv)
scFv: QVQLVQSGGGVVQPGRSLRLSCAASGFTFSSYGMHWVRQAPGKGLEWVAVISYDGSNKYYADSVKGRFTISRDNSKNTLYLQMNSLRAEDTAVYYCAKIGATDPLDYWGQGTLVTVSSGSASAPKLEEGEFSEARVQSALTQPASVSGSPGQSITISCTGTGSDVGAYDYVSWYQQHPGKAPKLMIYDVNNRPSGVSNRFSGSKSGNTASLTISGLQAEDEAEYYCSSFATSISWVFGGGTRLTVL
B4: YU112-H01 (scFv)
scFv: QVQLVESGGGVVQPGRSLRLSCAASGFTFGSYGMHWVRQAPGKGLEWVAVISYDGSNKYYADSVKGRFTISRDNSKNTLYLQMNSLRAEDTAVYYCAKGSYYFDYWGQGTLVTVSSGSASAPKLEEGEFSEARVETTLTQSPGTLSLSPGERATLSCRASQSVSSSYLAWYQQKPGQAPRLLIYGASSRATGIPDRFSGSGSGTDFTLTISSLQPDDFATYYCQQSYSTPTWTFGQGTKVEIK
B5: YU112-H02 (scFv)
scFv: QVQLVESGGGVVQPGRSLRLSCAASGFTFSSYGMHWVRQAPGKGLEWVAVISYDGSNKYYADSVKGRFTISRDNSKNTLYLQMNSLRAEDTAVYYCAKLSGPNGVDYWGQGTLVTVSSGSASAPKLEEGEFSEARVQPVLTQPRSVSGSPGQSVTISCTGTSSDVGGYNYVSWYQQHPGKAPKVMIYDVSKRPSGVPDRFSGSKSGNTASLTISGLQAEDEADYYCCSYAGSYTWVFGGGTKLTVL
B6: YU112-F05 (scFv)
scFv: EVQLVQSGGGVVQPGRSLRLSCAASGFTFGSYGMHWVRQAPGKGLEWVAVISYDGSNKYYADSVKGRFTISRDNSKNTLYLQMNSLRAEDTAVYYCAKIGATDPLDYWGQGTLVTVSSGSASAPKLEEGEFSEARVQSALTQPRSVSGSPGQSVTISCTGTSSDVGGYNYVSWYQQHPGKAPKLIIYDVNNRPSGVSNRFSASKSGNTASLTISGLQAEDEADYYCNSYTSGSTWVFGGGTKLTVL
B7: YU100-G07 (scFv)
scFv: QVQLVESGGGVVQPGRSLRLSCAASGFTFSSYGMHWVRQAPGKGLEWVAVISYDGSNKYYADSVKGRFTISRDNSKNTLYLQMNSLRAEDTAVYYCAKIGATDPLDYWGQGTLVTVSSGSASAPKLEEGEFSEARVQSALTQPASVSGSPGQSITISCTGTSSDVGAYDYVSWYQQHPGKAPKLMIYDVTNRPSGVSNRFSGSKSGNTASLTISGLQAEDEADYYCASYTRSSVWVFGGGTKLTVL
B8: YU100-B08 (scFv)
scFv: EVQLVQSGGGVVQPGRSLRLSCAASGFTFSSYGMHWVRQAPGKGLEWVAVISYDGSNKYYADSVKGRFTISRDNSKNTLYLQMNSLRAEDTAVYYCAKIGATDPLDYWGQGTLVTVSSGSASAPKLEEGEFSEARVQSALTQPASVSGSPGQSITISCTGTSSDVGGYNYVSWYQQHPGKVPRLLIYDVSNRPSGVSTRFSGSKSGNTASLTISGLQGEDEAEYYCSSFTSSTTWVFGGGTKLTVL
B9: YU100-G10 (scFv)
scFv: QVQLVQSGGGVVQPGRSLRLSCAASGFTFSSYGMHWVRQAPGKGLEWVAVISYDGSNKYYADSVKGRFTISRDNSKNTLYLQMNSLRAEDTAVYYCAKIGATDPLDYWGQGTLVTVSSGSASAPKLEEGEFSEARVQSALTQPASVSGSLGQSITMSCTGTRRDVGGYDFVSWYQQYPGKAPKLIIYDVSNRPSGVSNRFTGSKSGNTASLTISGLQAEDEADYYCCSYAGTYTWVFGGGTKVTVL
B10: YU112-C03 (scFv, not shown: a dimerising Fc or GST)
scFv: QVQLVESGGGVVQPGRSLRLSCAASGFTFSSYGMHWVRQAPGKGLEWVAVISYDGSNKYYADSVKGRFTISRDNSKNTLYLQMNSLRAEDTAVYYCAKGGKSYYGFDYWGQGTLVTVSSGSASAPKLEEGEFSEARVDSVMTQSPSSLSASVGDRVTITCRASQAINSYLNWYQQKPGKAPKLLIYAASSLQSGVPSRFSGSGSGTDFTLTISGLQPEDFATYYCQQSYSTPSWTFGQGTKVEIK
B11: YU100-E05 (scFv)
scFv: EVQLVQSGGGVVQPGRSLRLSCAASGFTFSSYGMHWVRQAPGKGLEWVAVISYDGSNKYYADSVKGRFTISRDNSKNTLYLQMNSLRAEDTAVYYCAKIGATDPLDYWGQGTLVTVSSGSASAPKLEEGEFSEARVQAVLTQPRSVSGSPGQSVTISCTGTSSDVGGYNYVSWYQQHPGKAPKLMIYDVSKRPSGVPDRFSGSKSGNTASLTISGLQAEDEADYYCCSYAGSYSWVFGGGTKLTVLGQPKAAPSVTLFPPSS
B12: YU100-E11 (scFv)
scFv: QVQLVESGGGVVQPGRSLRLSCAASGFTFSSYGMHWVRQAPGKGLEWVAVISYDGSNKYYADSVKGRFTISRDNSKNTLYLQMNSLRAEDTAVYYCARIMGYDYGDYDVVDYWGQGTLVTVSSGSASAPKLEEGEFSEARVQSALTQPRSVSGSPGQSVTISCTGTSSDVGGYNYVSWYQQHPGKAPKLMIYDVSKRPSGVPDRFSGSKSGNTASLTISGLQAEDEADYYCCSYAGSYTWVFGGGTKLTVL
B13: YU100-F07 (scFv)
scFv: B12 scFv with G33A, G153V, N174E, S195T, A223G, E226A, K247T, L248V
B14: YU100-H02 (scFv)
scFv: B12 scFv with V5Q, E6Q, G153R, G172T, S237F
B15: YU100-H09 (scFv, not shown: a dimerising Fc or GST)
scFv: B12 scFv with E6Q, G33A, R149A, V159I, K196N, P202S, D203N
B16: YU100-H04 (scFv)
scFv: B12 scFv with G33A, R149A, V159I, V170I, G172V
B17: YU112-C05 (scFv, not shown: a dimerising Fc or GST)
scFv: B12 scFv with Q1E, G33A, S167I, S195T, D228G, C232S, K247E
B18: YU100-E08 (scFv)
scFv: B12 scFv with E6Q, G33A, K196R, S237N, V241M
B19: YU100-E09 (scFv)
scFv: B12 scFv with G33A, G172D, N174D, M190I, S195T, V201I, G244R
B20: YU100-A10 (scFv)
scFv: EVQLVESGGGVVQPGRSLRLSCAASGFTFSSYGMHWVRQAPGKGLEWVAVISYDGSNKYYADSVKGRFTISRDNSKNTLYLQMNSLRAEDTAVYYCAKIGATDPLDYWGQGTLVTVSSGSASAPKLEEGEFSEARVLPVLTQPASVSGSPGQSITISCTGTSSDVGAYNYVSWYQQHPGKAPELMIYDVSNRPSGVSNRFSGSKSGNTASLTISGLQPEDEADYYCSSFTTSIAWVFGGGTKLTVL

molecular target: T1, human IL-11 (human, UniProt P20809 22-199); experiment: cell-based or functional assay
T1 sequence (looked up): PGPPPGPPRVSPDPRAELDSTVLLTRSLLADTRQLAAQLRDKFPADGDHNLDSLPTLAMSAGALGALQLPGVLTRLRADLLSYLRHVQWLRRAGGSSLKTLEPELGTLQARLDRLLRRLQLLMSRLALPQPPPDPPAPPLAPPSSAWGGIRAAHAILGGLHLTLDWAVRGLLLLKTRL
Note: test concentration or dose not given here.

Binder | MMP2 production (ng/ml), TGFB1-stimulated human atrial fibroblasts, Experiment 1 (NEG 42.7, POS 70.2) [ng/mL] | MMP2 production (ng/ml), TGFB1-stimulated human atrial fibroblasts, Experiment 2 (NEG 36.2, POS 62.3) [ng/mL]
B1 | 50.3 | 42.5
B2 | 55 | 47.8
B3 | 52.8 | 39.9
B4 | 51.9 | 47.7
B5 | 65.3 | 58
B6 | 53.9 | 48.5
B7 | 59 | 49.7
B8 | 55.3 | 40.6
B9 | 54 | 45.4
B10 | 57.6 | 53.3
B11 | 56.3 | 50.2
B12 | 49.1 | 41.9
B13 | 53.1 | 46.6
B14 | 57.5 | 51.3
B15 | 52.9 | 39.6
B16 | 58.5 | 48.7
B17 | 55.2 | 50.1
B18 | 48.2 | 59.7
B19 | 51.7 | 44.4
B20 | 52.1 | 50.1
